In patent US20250296912A1:

Biological target: prostate specific antigen (Homo sapiens)

| Substance | IC50 (48 hour exposure), Prostate DuPro (trace PSA) | IC50 (48 hour exposure), Prostate LnCAP (positive PSA) |
| --- | --- | --- |
| Analog 210 (Ac-Hyp-Ser-Ser-Chg-Gln-Ser-Ser-Pro-O-(CH2)3-acylfulvene) (peptide) | 3.5 µM | 0.81 µM |
| Analog 215 (Illudin S-Pro-Ser-Ser-Gln-Chg-Ser-Ser-Hyp-Ac) (peptide) |  | > 20 µM |
| Analog 216 (Illudin M-Pro-Ser-Ser-Gln-Chg-Ser-Ser-Hyp-Ac) (peptide) | 0.28 µM | 0.19 µM |
